Where no end group is shown, it is not given here.
Assay: siRNA encapsulation in nanogels ("breathing-in" loading, UV-vis of supernatant)
Assay type: physicochemical
Details: lyophilized nanogels reswollen in siRNA solution
Excerpt: In vitro siRNA encapsulation and release. Our group employs a “breathing-in” method for the encapsulation of various macromolecules within nanogels. In a typical method, lyophilized nanogels are resuspended in an aqueous solution containing the macromolecule to be loaded. Importantly, this is done using a loading solution volume that is almost completely imbibed by the swelling nanogels. In this fashion, the hydrogel network imbibes the payload with high efficiency and without relying on simple equilibrium partitioning to determine the maximum loading level. […]
The encapsulation efficiency was determined via ultracentrifugation of the nanogel loading solution and measurement of supernatant siRNA concentration by UV-vis spectroscopy (Shimadzu UV-1601). The moles of siRNA in the loading solution (msiRNA, Loading) and in the supernatant (msiRNA, Supernatant) were determined via interpolation from a separately constructed standard curve of absorbance vs. concentration (R^2>0.99). The encapsulation efficiency (EE) of the system could then be calculated through analysis of the amount of siRNA in the loading solution and the remaining moles of siRNA in the supernatant after nanogel swelling was complete, as illustrated by Equation 1 and in similar encapsulation experiments. […]

For “YSA-conjugated nanogels: core/shell pNIPMAm nanogels with YSA peptide coupled to shell amines via maleimide (EMCA) (YSAYPDSVPMMSC; also: coupled to nanogel shell amines via maleimide (EMCA))”, which siRNA encapsulation efficiency is on record?
The siRNA encapsulation efficiency was 93±1%.
